Measured values reported in article PMC4767637 (Journal of molecular biology, 2016).

Target: the molecule itself
Experiment: NMR

B1: Tyr-705-phosphorylated STAT3 (127-711)-His6 (domain or fragment, human, UniProt P40763 127-711, looked up)
chain: GQANHPTAAVVTEKQQMLEQHLQDVRKRVQDLEQKMKVVENLQDDFDFNYKTLKSQGDMQDLNGNNQSVTRQKMQQLEQMLTALDQMRRSIVSELAGLLSAMEYVQKTLTDEELADWKRRQQIACIGGPPNICLDRLENWITSLAESQLQTRQQIKKLEELQQKVSYKGDPIVQHRPMLEERIVELFRNLMKSAFVVERQPCMPMHPDRPLVIKTGVQFTTKVRLLVKFPELNYQLKIKVCIDKDSGDVAALRGSRKFNILGTNTKVMNMEESNNGSLSAEFKHLTLREQRCGNGGRANCDASLIVTEELHLITFETEVYHQGLKIDLETHSLPVVVISNICQMPNAWASILWYNMLTNNPKNVNFFTKPPIGTWDQVAEVLSWQFSSTTKRGLSIEQLTTLAEKLLGPGVNYSGCQITWAKFCKENMAGKGFSFWVWLDNIIDLVKKYILALWNEGYIMGFISKERERAILSTKPPGTFLLRFSESSKEGGVTFTWVEKDISGKTQIQSVEPYTKQQLNNMSFAEIIMGYKIMDATNILVSPLVYLYPDIPKEEAFGKYCRPESQEHPEADPGSAAPYLKTKFI
modifications: phosphotyrosine at 705
**Q.** With B1 as the protein, how does the “dH (van't Hoff, monomer-dimer equilibrium, from I568 and I654)” value read?
**A.** 14.8 ± 1.1 kcal/mol

**Q.** What about the “dH (van't Hoff, monomer-dimer equilibrium, from I653 and I711)” value of the same protein?
**A.** 12.8 ± 0.5 kcal/mol
